Measured values published in US20220175781A1, “CD40L COMPOSITIONS AND METHODS FOR TUNABLE REGULATION” (Obsidian Therapeutics, Inc., priority 2019, published 2022).

Tested on: CD4+ T cells
Experiment: Ligand dose response, % CD40L positive cells, CD4+ T cells
Type: cell-based
Experimental: Ligand dose response curve experiments were performed with increasing doses of ligand using OT-001662 and OT-001666 constructs in both CD4+ as well as CD8+ T cells.
The experiments were conducted using three different volumes of virus for transduction i.e. 0.5, 2 and 10 μL.

B1: OT-001666 (Met; ER (305-549 of WT, L384M, N413D, M421G, G521R, Y537S); Histidine; CD40L; stop) (ligand)
chain: MSLALSLTADQMVSALLDAEPPILYSEYDPTRPFSEASMMGLLTNLADRELVHMINWAKRVPGFVDLTLHDQVHLLECAWMEILMIGLVWRSMEHPGKLLFAPNLLLDRDQGKCVEGGVEIFDMLLATSSRFRMMNLQGEEFVCLKSIILLNSGVYTFLSSTLKSLEEKDHIHRVLDKITDTLIHLMAKAGLTLQQQHQRLAQLLLILSHIRHMSNKRMEHLYSMKCKNVVPLSDLLLEMLDAHRLHMIETYNQTSPRSAATGLPISMKIFMYLLTVFLITQMIGSALFAVYLHRRLDKIEDERNLHEDFVFMKTIQRCNTGERSLSLLNCEEIKSQFEGFVKDIMLNKEETKKENSFEMQKGDQNPQIAAHVISEASSKTTSVLQWAEKGYYTMSNNLVTLENGKQLTVKRQGLYYIYAQVTFCSNREASSQAPFIASLCLKSPGRFERILLRAANTHSSAKPCGQQSIHLGGVFELQPGASVFVNVTDPSQVSHGTGFTSFGLLKL
- % CD40L positive cells (2 μL virus, BZD 0.05 nM): 8.57%
- % CD40L positive cells (2 μL virus, BZD 0.5 nM): 9.25%
- % CD40L positive cells (2 μL virus, BZD 5 nM): 11.1%
- % CD40L positive cells (2 μL virus, BZD 50 nM): 36%
- % CD40L positive cells (2 μL virus, BZD 500 nM): 71.8%
- % CD40L positive cells (10 μL virus, BZD 0.05 nM): 4.16%
- % CD40L positive cells (10 μL virus, BZD 0.5 nM): 4.86%
- % CD40L positive cells (10 μL virus, BZD 5 nM): 6.42%
- % CD40L positive cells (10 μL virus, BZD 50 nM): 34%
- % CD40L positive cells (10 μL virus, BZD 500 nM): 76.5%
